The target in assay [1] is T1, α2(I) chain of type I collagen (mouse, UniProt Q01149 97-1110, limits assumed).
T1 construct: Denatured chain on a nitrocellulose filter; pepsin-treated collagen
Put plainly: filter binding assay, electroblotted chains, avidin-peroxidase. An excerpt: (§1) The α1(I) and α2(I) chains of type I collagen or CNBr fragments of the chains were separated by polyacrylamide gel electrophoresis and electroblotted onto filters. The filters were then hybridized with a biotinylated telopeptide followed by assay of the washed filter with streptavidin-horseradish peroxidase. “CNBr+” indicates α1(I) or α2(I) chains which were digested with cyanogen bromide.
Type I collagen extracted with 0.5 M acetic acid from mouse skin was digested with pepsin, and the a chains separated by gel electrophoresis in SDS. To generate CNBr peptides, gel slices containing α1(1) and α2(I) chains were placed into tubes and a chains were digested with 10 mg/ml or 200 mg/ml CNBr in 70% formic acid at room temperature overnight. The gel slices were equilibrated with 0.05 mM Tris-HCl buffer (pH 6.8) over 3 hours. Gel pieces containing CNBr peptides derived from individual collagen a chains were transferred into the wells of the second gel prepared with a 6% polyacrylamide stacking gel and 12% polyacrylamide separating gel with 0.5 M urea. After electrophoresis, the gel was electroblotted overnight at 4° C. onto a nitrocellulose filter (Millipore). To study binding of telopeptides to collagen fragments, the method described by Fujisawa et al. (Fujisawa et al., 1994, Calcif. Tiss. Int. 56:140-144) was used. The filters were blocked with 1% bovine serum albumin (Sigma) and then incubated overnight with 20 ml of 5 mg/ml peptide that was substituted at the N-terminus with biotin (synthesized for us by American Peptide Company, Inc.). The filter was washed three times with Tris-buffered saline containing 0.02% Tween (TBST) and incubated 30 min with a 1:30,000 dilution of horseradish peroxidase conjugated with avidin (Sigma). The bands were detected by chemiluminescence (ECL; Amersham) after exposure to an X-ray film for 3 to 10 min.

The target of assay [2] is T2, α1(I) chain of type I collagen (mouse, UniProt P11087 168-1181, limits assumed).
T2 construct: Denatured chain on a nitrocellulose filter; pepsin-treated collagen; also called α1 chain
T2 sequence (P11087 168-1181 limits assumed): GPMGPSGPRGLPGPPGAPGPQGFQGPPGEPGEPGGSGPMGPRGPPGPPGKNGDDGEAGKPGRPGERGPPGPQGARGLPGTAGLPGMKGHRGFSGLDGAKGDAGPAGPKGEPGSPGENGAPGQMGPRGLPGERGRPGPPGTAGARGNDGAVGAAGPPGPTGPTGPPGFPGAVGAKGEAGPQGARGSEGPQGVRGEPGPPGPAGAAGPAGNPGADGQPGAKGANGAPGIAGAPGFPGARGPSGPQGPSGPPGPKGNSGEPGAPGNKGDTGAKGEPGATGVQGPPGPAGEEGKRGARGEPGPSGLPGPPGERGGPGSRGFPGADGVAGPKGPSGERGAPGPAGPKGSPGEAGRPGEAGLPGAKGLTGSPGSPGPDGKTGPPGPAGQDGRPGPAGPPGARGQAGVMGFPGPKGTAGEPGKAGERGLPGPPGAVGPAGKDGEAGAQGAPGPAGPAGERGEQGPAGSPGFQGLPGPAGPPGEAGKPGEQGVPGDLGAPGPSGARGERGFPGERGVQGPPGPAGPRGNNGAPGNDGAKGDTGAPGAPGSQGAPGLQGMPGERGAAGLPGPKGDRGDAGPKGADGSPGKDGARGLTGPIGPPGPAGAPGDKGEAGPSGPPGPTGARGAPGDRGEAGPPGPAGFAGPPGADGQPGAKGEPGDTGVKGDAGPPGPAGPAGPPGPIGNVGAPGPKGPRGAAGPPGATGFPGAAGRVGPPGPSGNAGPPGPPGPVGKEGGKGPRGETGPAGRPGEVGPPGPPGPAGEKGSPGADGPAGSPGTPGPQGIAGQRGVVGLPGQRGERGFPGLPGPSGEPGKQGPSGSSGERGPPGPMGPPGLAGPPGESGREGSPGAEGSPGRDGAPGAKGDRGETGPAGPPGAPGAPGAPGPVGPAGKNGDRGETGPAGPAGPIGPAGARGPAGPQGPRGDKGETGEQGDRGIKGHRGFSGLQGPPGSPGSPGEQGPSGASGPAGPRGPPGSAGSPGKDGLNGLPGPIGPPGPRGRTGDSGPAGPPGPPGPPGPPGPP
Nature of the assay: electroblot assay, FIG. 5B.
Description: as §1
(§2) Type I collagen extracted with 0.5 M acetic acid from mouse skin was digested with pepsin, and the a chains separated by gel electrophoresis in SDS. To generate CNBr peptides, gel slices containing α1(1) and α2(I) chains were placed into tubes and a chains were digested with 10 mg/ml or 200 mg/ml CNBr in 70% formic acid at room temperature overnight. The gel slices were equilibrated with 0.05 mM Tris-HCl buffer (pH 6.8) over 3 hours. Gel pieces containing CNBr peptides derived from individual collagen a chains were transferred into the wells of the second gel prepared with a 6% polyacrylamide stacking gel and 12% polyacrylamide separating gel with 0.5 M urea. After electrophoresis, the gel was electroblotted overnight at 4° C. onto a nitrocellulose filter (Millipore). […] The bands were detected by chemiluminescence (ECL; Amersham) after exposure to an X-ray film for 3 to 10 min.

For assay [3], the target named is T2, α1(I) chain of type I collagen. Put plainly: electroblot assay, FIG. 5C.
Description: as §1, §2

No end group written: not given here. *: point of attachment. Biotin = O=C1N[C@H]2[C@H](CS[C@H]2CCCCC(=O)*)N1

T1 sequence (Q01149 97-1110 limits assumed): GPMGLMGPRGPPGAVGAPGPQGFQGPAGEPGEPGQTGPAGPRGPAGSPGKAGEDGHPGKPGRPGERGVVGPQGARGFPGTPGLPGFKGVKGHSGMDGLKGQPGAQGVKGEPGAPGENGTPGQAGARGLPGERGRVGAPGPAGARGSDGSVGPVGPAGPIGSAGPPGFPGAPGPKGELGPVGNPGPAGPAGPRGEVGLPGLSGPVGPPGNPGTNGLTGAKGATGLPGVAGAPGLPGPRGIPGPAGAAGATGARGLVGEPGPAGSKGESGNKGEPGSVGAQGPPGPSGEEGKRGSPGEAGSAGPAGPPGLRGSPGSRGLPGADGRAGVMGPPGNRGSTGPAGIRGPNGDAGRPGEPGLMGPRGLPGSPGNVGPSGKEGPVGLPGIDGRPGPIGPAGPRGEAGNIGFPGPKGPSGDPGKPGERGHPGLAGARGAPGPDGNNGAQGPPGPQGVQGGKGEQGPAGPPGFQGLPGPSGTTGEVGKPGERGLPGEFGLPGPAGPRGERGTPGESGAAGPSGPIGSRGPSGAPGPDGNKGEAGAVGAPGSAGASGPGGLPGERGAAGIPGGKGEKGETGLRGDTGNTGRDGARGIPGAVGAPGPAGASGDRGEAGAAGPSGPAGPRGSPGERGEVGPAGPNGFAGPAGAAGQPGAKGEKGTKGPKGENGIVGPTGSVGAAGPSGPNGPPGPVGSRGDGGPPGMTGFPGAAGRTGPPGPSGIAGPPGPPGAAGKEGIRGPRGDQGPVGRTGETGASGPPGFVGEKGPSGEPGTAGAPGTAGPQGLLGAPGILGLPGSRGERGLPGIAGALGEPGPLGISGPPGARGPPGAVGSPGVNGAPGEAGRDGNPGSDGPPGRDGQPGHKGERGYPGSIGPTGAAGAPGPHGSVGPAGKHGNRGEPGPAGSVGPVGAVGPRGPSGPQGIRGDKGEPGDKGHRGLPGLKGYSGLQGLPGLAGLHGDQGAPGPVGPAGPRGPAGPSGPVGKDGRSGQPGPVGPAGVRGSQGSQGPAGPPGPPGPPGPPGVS

B1: biotinylated C-telopeptide of α2 chain of human type I collagen (peptide)
peptide: Biotin-GGGYDFGYDGDFYRA
notes: also called biotinylated F3
As to B1, the binding result in assay [1] is reported as “no binding (tested: 5 mg/ml peptide (so in the source))”; in assay [2], “binds”.

B2: biotinylated N-telopeptide of the α1 chain of human type I collagen (peptide)
peptide: Biotin-QLSYGYDEKSTGGISVP
notes: also called biotinylated α1 N-telopeptide
Regarding B2, the binding result in assay [1] is “no binding (tested: 5 mg/ml peptide (so in the source))”; in assay [3] it was “binds”.

B3: biotinylated N-telopeptide of α2 chain of human type I collagen (peptide, UniProt P08123 80-90, looked up)
peptide: Biotin-QYDGKGVGLGP
notes: domain: N-telopeptide; also called biotinylated α2 N-telopeptide
For the molecule B3, the binding result in assay [1] was “no binding (tested: 5 mg/ml peptide (so in the source))”.

The record behind these values is patent US20030087315A1 (MCP HAHNEMANN UNIVERSITY, published 2003).
